The series is described as follows: melting temperature; melt of duplexes. To be noted: sodium 0.0675 M; strand 1 µM.
Turning to “CGACGTGCCTTATGTGCTG+CAGCACATCGCGCACGTCG ((((((((...((((((((+))))))))...))))))))”, the melting temperature (Tm) was 47.2 °C. Turning to “CGACGTGCCTAATGTGCTG+CAGCACATAGGGCACGTCG (((((((((..((((((((+))))))))..)))))))))”, the Tm came to 55.4 °C. Under “CGACGTGCGCGATGTGCTG+CAGCACATTGAGCACGTCG ((((((((.(.((((((((+)))))))).).))))))))” stands 56.8 °C.

As for “CGACGTGCATTATGTGCTG+CAGCACATCTGGCACGTCG ((((((((...((((((((+))))))))...))))))))”, the melting temperature (Tm) is 48.4 °C. On to “CGACGTGCCCCATGTGCTG+CAGCACATGTCGCACGTCG ((((((((..(((((((((+)))))))))..))))))))”, for which the Tm worked out at 51.2 °C. The value for “CGACGTGCACGATGTGCTG+CAGCACATAGGGCACGTCG ((((((((.(.((((((((+)))))))).).))))))))” was 54.9 °C; that for “CGACGTGCCATATGTGCTG+CAGCACATTAAGCACGTCG ((((((((...((((((((+))))))))...))))))))” was 50.1 °C. On to “CGACGTGCAGTATGTGCTG+CAGCACATTACGCACGTCG ((((((((...((((((((+))))))))...))))))))”, for which the Tm was 52.1 °C.

As to “CGACGTGCTAAATGTGCTG+CAGCACATGAGGCACGTCG ((((((((...((((((((+))))))))...))))))))”, the Tm amounted to 53.4 °C.

Turning to “CGACGTGCGGAATGTGCTG+CAGCACATTGGGCACGTCG ((((((((..(((((((((+)))))))))..))))))))”, the Tm came out at 53.5 °C. With “CGACGTGCAACATGTGCTG+CAGCACATTTCGCACGTCG ((((((((.(.((((((((+)))))))).).))))))))”, the Tm is 49 °C. Regarding “CGACGTGCTTGATGTGCTG+CAGCACATGCTGCACGTCG ((((((((...((((((((+))))))))...))))))))”, the Tm came to 48.1 °C. The value for “CGACGTGCTTTATGTGCTG+CAGCACATAGGGCACGTCG ((((((((..(((((((((+)))))))))..))))))))” was 51.1 °C; that for “CGACGTGCATAATGTGCTG+CAGCACATACTGCACGTCG (((((((((..((((((((+))))))))..)))))))))” was 50.5 °C; that for “CGACGTGCTCGATGTGCTG+CAGCACATTGTGCACGTCG ((((((((.(.((((((((+)))))))).).))))))))” was 51.5 °C. On to “CGACGTGCTCTATGTGCTG+CAGCACATTGGGCACGTCG ((((((((.(.((((((((+)))))))).).))))))))”, for which the midpoint of thermal melting (Tm) was 53.4 °C. Under “CGACGTGCAGGATGTGCTG+CAGCACATCCCGCACGTCG ((((((((.((((((((((+)))))))))).))))))))” stands 59 °C; under “CGACGTGCGCCATGTGCTG+CAGCACATCCCGCACGTCG (((((((((..((((((((+))))))))..)))))))))”, 50.6 °C; under “CGACGTGCATGATGTGCTG+CAGCACATACCGCACGTCG ((((((((...((((((((+))))))))...))))))))”, 47.5 °C. Turning to “CGACGTGCCGGATGTGCTG+CAGCACATTCGGCACGTCG ((((((((((.((((((((+)))))))).))))))))))”, the Tm is 62.4 °C. Under “CGACGTGCAGCATGTGCTG+CAGCACATTGTGCACGTCG (((((((((..((((((((+))))))))..)))))))))” stands 44.8 °C; under “CGACGTGCGACATGTGCTG+CAGCACATCGTGCACGTCG ((((((((...((((((((+))))))))...))))))))”, 47.6 °C; under “CGACGTGCTACATGTGCTG+CAGCACATAGTGCACGTCG ((((((((...((((((((+))))))))...))))))))”, 48.1 °C.

For “CGACGTGCGCAATGTGCTG+CAGCACATTTGGCACGTCG ((((((((..(((((((((+)))))))))..))))))))”, the Tm came out at 52.5 °C. On to “CGACGTGCTATATGTGCTG+CAGCACATCCAGCACGTCG (((((((((..((((((((+))))))))..)))))))))”, for which the Tm came out at 50.2 °C. The value for “CGACGTGCAGAATGTGCTG+CAGCACATGGCGCACGTCG ((((((((...((((((((+))))))))...))))))))” was 55.9 °C.

In the case of “CGACGTGCCAAATGTGCTG+CAGCACATGTGGCACGTCG ((((((((((.((((((((+)))))))).))))))))))”, the Tm is 58.5 °C.

With “CGACGTGCTCGATGTGCTG+CAGCACATGCTGCACGTCG ((((((((...((((((((+))))))))...))))))))”, the Tm came out at 47 °C. The value for “CGACGTGCTCGATGTGCTG+CAGCACATCCTGCACGTCG ((((((((..(((((((((+)))))))))..))))))))” was 53 °C; that for “CGACGTGCTGTATGTGCTG+CAGCACATAGGGCACGTCG ((((((((..(((((((((+)))))))))..))))))))” was 52.2 °C; that for “CGACGTGCCGCATGTGCTG+CAGCACATAATGCACGTCG ((((((((...((((((((+))))))))...))))))))” was 47.9 °C.

“CGACGTGCATTATGTGCTG+CAGCACATGTAGCACGTCG ((((((((...((((((((+))))))))...))))))))”: the Tm came out at 49.4 °C. Under “CGACGTGCCTCATGTGCTG+CAGCACATAGAGCACGTCG ((((((((...((((((((+))))))))...))))))))” stands 51.6 °C; under “CGACGTGCCTGATGTGCTG+CAGCACATGTGGCACGTCG (((((((((..((((((((+))))))))..)))))))))”, 54.9 °C. Turning to “CGACGTGCGAAATGTGCTG+CAGCACATATCGCACGTCG ((((((((((.((((((((+)))))))).))))))))))”, the Tm was determined as 57.4 °C. The value for “CGACGTGCCCGATGTGCTG+CAGCACATACAGCACGTCG ((((((((...((((((((+))))))))...))))))))” was 49.1 °C; that for “CGACGTGCCGCATGTGCTG+CAGCACATCATGCACGTCG ((((((((...((((((((+))))))))...))))))))” was 48.6 °C. The value for “CGACGTGCGGGATGTGCTG+CAGCACATTAGGCACGTCG ((((((((...((((((((+))))))))...))))))))” was 51.9 °C; that for “CGACGTGCATCATGTGCTG+CAGCACATTTCGCACGTCG ((((((((...((((((((+))))))))...))))))))” was 46.9 °C; that for “CGACGTGCTCCATGTGCTG+CAGCACATAATGCACGTCG ((((((((...((((((((+))))))))...))))))))” was 48.4 °C. Under “CGACGTGCCGTATGTGCTG+CAGCACATACTGCACGTCG ((((((((.((((((((((+)))))))))).))))))))” stands 56.9 °C; under “CGACGTGCCTGATGTGCTG+CAGCACATGGTGCACGTCG ((((((((...((((((((+))))))))...))))))))”, 47.4 °C.

“CGACGTGCCGCATGTGCTG+CAGCACATGCGGCACGTCG (((((((((((((((((((+)))))))))))))))))))”: the Tm is 69.1 °C. Under “CGACGTGCTTAATGTGCTG+CAGCACATTGGGCACGTCG ((((((((..(((((((((+)))))))))..))))))))” stands 53.5 °C. As to “CGACGTGCAGCATGTGCTG+CAGCACATAGGGCACGTCG ((((((((...((((((((+))))))))...))))))))”, the melting temperature (Tm) is 46.4 °C. “CGACGTGCAAAATGTGCTG+CAGCACATCTAGCACGTCG ((((((((.(.((((((((+)))))))).).))))))))”: the Tm is 49.5 °C. Under “CGACGTGCCACATGTGCTG+CAGCACATAATGCACGTCG ((((((((...((((((((+))))))))...))))))))” stands 47.5 °C; under “CGACGTGCGCGATGTGCTG+CAGCACATGGGGCACGTCG ((((((((.(.((((((((+)))))))).).))))))))”, 55.6 °C. For the substance “CGACGTGCCAGATGTGCTG+CAGCACATCCCGCACGTCG ((((((((..(((((((((+)))))))))..))))))))”, the Tm is 53.3 °C. With “CGACGTGCATGATGTGCTG+CAGCACATCCGGCACGTCG ((((((((..(((((((((+)))))))))..))))))))”, the Tm turned out to be 54.4 °C. On to “CGACGTGCCCCATGTGCTG+CAGCACATATCGCACGTCG ((((((((...((((((((+))))))))...))))))))”, for which the Tm is 45.5 °C. As to “CGACGTGCGCAATGTGCTG+CAGCACATAGTGCACGTCG ((((((((.(.((((((((+)))))))).).))))))))”, the Tm came to 51.6 °C. The value for “CGACGTGCGCTATGTGCTG+CAGCACATCAAGCACGTCG ((((((((...((((((((+))))))))...))))))))” was 51.4 °C; that for “CGACGTGCTGAATGTGCTG+CAGCACATAGCGCACGTCG ((((((((...((((((((+))))))))...))))))))” was 48.3 °C. The value for “CGACGTGCCGTATGTGCTG+CAGCACATACGGCACGTCG (((((((((((((((((((+)))))))))))))))))))” was 66.2 °C; that for “CGACGTGCCTCATGTGCTG+CAGCACATCCGGCACGTCG (((((((((..((((((((+))))))))..)))))))))” was 51.2 °C; that for “CGACGTGCTCCATGTGCTG+CAGCACATACCGCACGTCG ((((((((...((((((((+))))))))...))))))))” was 46.3 °C.

As to “CGACGTGCGCCATGTGCTG+CAGCACATAACGCACGTCG (((((((((..((((((((+))))))))..)))))))))”, the Tm was determined as 52.4 °C. The value for “CGACGTGCCACATGTGCTG+CAGCACATGGAGCACGTCG ((((((((..(((((((((+)))))))))..))))))))” was 56.1 °C; that for “CGACGTGCTAGATGTGCTG+CAGCACATTTCGCACGTCG ((((((((.(.((((((((+)))))))).).))))))))” was 50.1 °C. Consider “CGACGTGCCAGATGTGCTG+CAGCACATTGCGCACGTCG ((((((((...((((((((+))))))))...))))))))”, for which the melting temperature (Tm) amounted to 51.2 °C. The value for “CGACGTGCCTAATGTGCTG+CAGCACATTCGGCACGTCG (((((((((.(((((((((+))))))))).)))))))))” was 57 °C; that for “CGACGTGCCGGATGTGCTG+CAGCACATCGCGCACGTCG ((((((((..(((((((((+)))))))))..))))))))” was 55.4 °C; that for “CGACGTGCGGCATGTGCTG+CAGCACATTTCGCACGTCG (((((((((..((((((((+))))))))..)))))))))” was 53.4 °C. For “CGACGTGCAGAATGTGCTG+CAGCACATTTTGCACGTCG (((((((((.(((((((((+))))))))).)))))))))”, the Tm was 57 °C. The value for “CGACGTGCACTATGTGCTG+CAGCACATTTCGCACGTCG ((((((((...((((((((+))))))))...))))))))” was 43.1 °C.

For the origin of these results see the array DNA melting data of Ke et al..
